Experimental data published in patent publication US20250282885A1 (VST BIO, published 2025).
Substitutions are numbered along the chain they refer to.

Legend:
[1] = target: human Sdc2 on Human Umbilical Vein Endothelial Cells (HUVEC) (human, UniProt P34741 19-201); assay: cell-based or functional assay
human Sdc2 [2] = target: T1, human Sdc2 (human, UniProt P34741 19-144, limits assumed); assay: Kd (human Sdc2), summary table of the mAbs
T1 construct: Antigen of the Octet tandem binning, loaded on biosensors at 100 nM; also called huSdc2; hSdc2
T1 sequence (P34741 19-144 limits assumed): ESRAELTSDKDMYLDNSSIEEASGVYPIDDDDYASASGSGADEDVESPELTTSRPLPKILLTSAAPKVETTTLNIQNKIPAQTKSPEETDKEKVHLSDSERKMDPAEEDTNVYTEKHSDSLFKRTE

human Sdc2 [3] = target: T1, human Sdc2; assay: Octet tandem binning; saturating Ab m2 19838-8G17-A
Method: (§1) These studies were performed in a tandem binning assay format with human Sdc2, used as the antigen (concentration of 100 nM). Antigen loaded biosensors were dipped in a saturating solution of antibody (25 μg/ml) for 240 seconds followed by a competing antibody at 5 μg/ml for 180 seconds. […] Since saturation is not possible to achieve saturation with these clones, they are removed in as ligands, but retained in the analyte orientation in the analysis. A table summarizing the results of epitope binning of the 18 antibodies against huSdc2 is illustrated in FIG. 30. Data is normalized, where the raw binding signal from Competing Ab for a given Saturating Ab is divided by binding in the absence a […] (“buffer”). The threshold determining the matrix color is adjustable and dependent upon Ag-Ab binding. […] Table rows are based on similar looking binding profiles. Note that the coloration/cutoff is subjective, yellow color added to represent injections with ambiguous or very weak sandwiching signals. FIG. 31 illustrates a clustergram of the epitope binning studies, which was generated from the normalized binning data by importation into the statistical computing program R (The R Project for Statistical Computing: at r-project.org) and generation of a clustergram with the pvclust package.

human Sdc2 [4] = target: T1, human Sdc2; assay: Octet tandem binning; saturating Ab f9 19838-6-E17-A
Method: as §1

human Sdc2 [5] = target: T1, human Sdc2; assay: Octet tandem binning; saturating Ab f12 19838-6-N03-A
Method: as §1

human Sdc2 [6] = target: T1, human Sdc2; assay: Octet tandem binning; saturating Ab m1 19838-20H19-AB
Method: as §1

human Sdc2 [7] = target: T1, human Sdc2; assay: Octet tandem binning; saturating Ab f10 19838-10-I12-A
Method: as §1

human Sdc2 [8] = target: T1, human Sdc2; assay: Octet tandem binning; saturating Ab f11 19838-20-H19-A
Method: as §1

human Sdc2 [9] = target: T1, human Sdc2; assay: Octet tandem binning; saturating Ab f4 19844-R3-P3-C11
Method: as §1

human Sdc2 [10] = target: T1, human Sdc2; assay: Octet tandem binning; saturating Ab f6 19844-R3-P3-E09
Method: as §1

human Sdc2 [11] = target: T1, human Sdc2; assay: Octet tandem binning; saturating Ab f7 19844-R3-P3-A12
Method: as §1

human Sdc2 [12] = target: T1, human Sdc2; assay: Octet tandem binning; saturating Ab m7 19844-R3-P1-E07
Method: as §1

human Sdc2 [13] = target: T1, human Sdc2; assay: Octet tandem binning; saturating Ab f5 19844-R4M-P3-E06
Method: as §1

human Sdc2 [14] = target: T1, human Sdc2; assay: Octet tandem binning; saturating Ab f8 19844-R4M-P2-C02
Method: as §1

human Sdc2 [15] = target: T1, human Sdc2; assay: Octet tandem binning; saturating Ab m4 19844-R4M-P1-A10
Method: as §1

human Sdc2 [16] = target: T1, human Sdc2; assay: Octet tandem binning; Buffer in place of a saturating Ab
Method: as §1

human Sdc2 [17] = target: T1, human Sdc2; assay: Octet tandem binning; saturating Ab m6 19838-20H19-AA (marked non-binding ligand)
Method: as §1

human Sdc2 [18] = target: T1, human Sdc2; assay: Octet tandem binning; saturating Ab m3 19844-R3-P1-C02 (row boxed, self-self >0.09)
Method: as §1

human Sdc2 [19] = target: T1, human Sdc2; assay: Octet tandem binning; saturating Ab m8 19844-R4M-P1-B01 (marked non-binding ligand)
Method: as §1

human Sdc2 [20] = target: T1, human Sdc2; assay: Octet tandem binning; saturating Ab m5 19844-R4M-P3-A12 (row boxed, self-self >0.09)
Method: as §1

human Sdc2 [21] = target: T1, human Sdc2; assay: Octet tandem binning; saturating Ab f3 19838-6N03-A
Method: as §1

human Sdc2 [22] = target: T1, human Sdc2; assay: Octet BLI, heading box over the sensorgram
Method: In order to characterize the binding affinity and in vivo/in vitro functional ability of the twelve clones generated by the previous studies and disclosed in Table 1, a series of assays were performed on each clone. These assays measured the affinity of each antibody clone for human, pig, and mouse Sdc2 using an Octet® binding assay system. Additionally, the functional ability of each clone to inhibit VEGFA-driven permeability (see Santiago, et al. (2021) J Am Heart Assoc. 10(18):e020521) was assessed in two therapeutic settings: a “prevention” study in which three concentrations of antibody (5 μg/ml, 10 μg/ml, 15 μg/ml, 20 μg/ml, and/or 40 μg/ml depending on the study) were pre-incubated for an hour before administration of 100 ng/ml of VEGFA, and a “treatment” study in which 3 hours of pre-treatment with 100 ng/ml VEGFA were followed by treatment with antibody at 20 μg/ml or 40 μg/ml. Results are shown for 8-G17 in FIG. 8 and FIG. 9, 20-H19-AB in FIG. 10 and FIG. 11 (FIG. 12 for monkey ECs), R3-P3-C11 in FIG. 13 and FIG. 14, R4M-P3-E06 in FIG. 15 and FIG. 16, R3-P3-E09 in FIG. 17 and FIG. 18, R3-P1-C02 in FIG. 19 and FIG. 20, R3-P3-A12 in FIG. 21 and FIG. 22, R4M-P3-A12 in FIG. 23 and FIG. 24, and R4M-P1-A10 in FIG. 25 and FIG. 26.

human Sdc2 [23] = target: T1, human Sdc2; assay: Octet BLI, HIS1K sensor loaded with hSdc2, antibody as sample; Full R2 0.9248

human Sdc2 on Human Umbilical Vein Endothelial Cells (HUVEC), sequence (P34741 19-201 limits assumed): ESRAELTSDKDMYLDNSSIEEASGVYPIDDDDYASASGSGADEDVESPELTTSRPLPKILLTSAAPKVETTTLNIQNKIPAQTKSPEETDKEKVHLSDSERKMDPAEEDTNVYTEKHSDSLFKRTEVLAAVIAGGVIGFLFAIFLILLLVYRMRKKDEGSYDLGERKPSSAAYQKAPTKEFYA

B1: TP-43327F (antibody, human IgG1, kappa, V domains shown)
VH: QVQLVESGGGVVQPGGSLRLSCAASGFTFNIYAMHWVRQAPGKGLEWVARIGSKSSYYATYYADSVKGRFTISRDNSKNTLYLQMNSLRTEDTAVYYCVSGKGDWGQGTLVTVSS
VL: DVVMTQSPLSLPVTLGQPASISCRSSQSLLAGDGKTYLNWFLQRPGQSPRRLIYLVSKLDSGVPDRFSGSGSGTDFTLKISRVEAEDVGVYYCWQGTHFPWTFGAGTRLEIKR
With B1 the “% Inhibition of VEGFA-induced permeability at 24hrs (20ug/ml)” value (“% Inhibition” below) [1] was 100% and the Kd (human Sdc2 [2]) was less than 0.1 nM.

B2: TP-43329F (antibody, human IgG1, kappa, V domains shown)
VH: B1 VH
VL: B1 VL with L42Q
For B2, the “% Inhibition” value [1] was 100% and the Kd (human Sdc2 [2]) was 0.8 nM.

B3: 6-N03-A (antibody, mouse IgG1, kappa, V domains shown)
VH: EVQLVESGGGLVKPGGSLKLSCEASGITFSNYVMSWVRQTPEKRLEWVATISDGGSYTYYPDNVKGRFTISRDNAKNNLYLQMSHLKSEDTAMYYCVRDRYDYDGRVYAMDYWGQGTSVTVSS
VL: DVVMTQTPLSLPVSLGDQASISCRSSQSLVHSNGDTYLHWYLQKPGQSPKLLIYKVSNRFSGVPDRFSGSGSGTDFTLKITRVEAEDLGVYFCSQSTHVPWTFGGGTKLEIKR
For B3, the “% Inhibition” value [1] was 50%, the Kd (human Sdc2 [2]) was 1.17 nM and the “raw competing-Ab binding signal” value (human Sdc2 [3]) was -0.0492. For the same binder, the “raw competing-Ab binding signal” value (human Sdc2 [4]) was 0.422, the “raw competing-Ab binding signal” value (human Sdc2 [5]) was 0.0194 and the “raw competing-Ab binding signal” value (human Sdc2 [6]) was 0.0812. The “raw competing-Ab binding signal” value (human Sdc2 [7]) was 0.0887, the “raw competing-Ab binding signal” value (human Sdc2 [8]) was 0.0908 and the “raw competing-Ab binding signal” value (human Sdc2 [9]) was 0.301. For the same binder, the “raw competing-Ab binding signal” value (human Sdc2 [10]) was 0.346, the “raw competing-Ab binding signal” value (human Sdc2 [11]) was 0.179 and the “raw competing-Ab binding signal” value (human Sdc2 [12]) was 0.486. For the same binder, the “raw competing-Ab binding signal” value (human Sdc2 [13]) was 0.463, the “raw competing-Ab binding signal” value (human Sdc2 [14]) was 0.418 and the “raw competing-Ab binding signal” value (human Sdc2 [15]) was 0.374. The “raw competing-Ab binding signal” value (human Sdc2 [16]) was 0.477, the “raw competing-Ab binding signal” value (human Sdc2 [17]) was 0.487 and the “raw competing-Ab binding signal” value (human Sdc2 [18]) was 0.397. For the same binder, the “raw competing-Ab binding signal” value (human Sdc2 [19]) was 0.497 and the “raw competing-Ab binding signal” value (human Sdc2 [20]) was 0.472.

B4: 19838-6-N03-A (antibody, IgG1, V domains shown)
VH: B3 VH
VL: B3 VL
With B4 the “raw competing-Ab binding signal” value (human Sdc2 [21]) was 0.0058, the “raw competing-Ab binding signal” value (human Sdc2 [3]) was -0.0312 and the “raw competing-Ab binding signal” value (human Sdc2 [4]) was 0.378. For the same binder, the “raw competing-Ab binding signal” value (human Sdc2 [6]) was 0.0556, the “raw competing-Ab binding signal” value (human Sdc2 [7]) was 0.0734 and the “raw competing-Ab binding signal” value (human Sdc2 [8]) was 0.122. The “raw competing-Ab binding signal” value (human Sdc2 [9]) was 0.197, the “raw competing-Ab binding signal” value (human Sdc2 [10]) was 0.31 and the “raw competing-Ab binding signal” value (human Sdc2 [11]) was 0.162. For the same binder, the “raw competing-Ab binding signal” value (human Sdc2 [12]) was 0.48, the “raw competing-Ab binding signal” value (human Sdc2 [13]) was 0.463 and the “raw competing-Ab binding signal” value (human Sdc2 [14]) was 0.326. For the same binder, the “raw competing-Ab binding signal” value (human Sdc2 [15]) was 0.336, the “raw competing-Ab binding signal” value (human Sdc2 [16]) was 0.413 and the “raw competing-Ab binding signal” value (human Sdc2 [17]) was 0.501. For the same binder, the “raw competing-Ab binding signal” value (human Sdc2 [18]) was 0.332, the “raw competing-Ab binding signal” value (human Sdc2 [19]) was 0.388 and the “raw competing-Ab binding signal” value (human Sdc2 [20]) was 0.435.

B5: R3-P3-E09 (antibody, human IgG1, kappa, V domains shown)
VH: EVQLVETGGGVVQPGRSLTLSCGASEFTFSNYAMHWVRQAPGKGLEWVAVISYDGTKKYYGDSVKGRFTISRENIKNTLYLQMNSLRSEDTAVYYCARDVGKGVTATGTFDIWGQGTMVTVSS
VL: AIRMTQSPSSLSASVGDRVTITCRASQGIGSYLAWFQQKPGEAPKSLIIDATRLKSGVPSRFSGSGSGTEFALTISSLRPEDFATYYCQQYNVSPLTFGGGTKVEIKR
notes: human IgG1 kappa from the phage campaign
In the case of B5, the “% Inhibition” value [1] is reported as 75%, the Kd (human Sdc2 [2]) is reported as 17.7 nM and the Kd (human Sdc2 [22]) is reported as roughly 17.7 nM. The “raw competing-Ab binding signal” value (human Sdc2 [21]) was 0.407, the “raw competing-Ab binding signal” value (human Sdc2 [3]) was 0.397 and the “raw competing-Ab binding signal” value (human Sdc2 [4]) was 0.376. The “raw competing-Ab binding signal” value (human Sdc2 [5]) was 0.518, the “raw competing-Ab binding signal” value (human Sdc2 [6]) was 0.273 and the “raw competing-Ab binding signal” value (human Sdc2 [7]) was 0.151. For the same binder, the “raw competing-Ab binding signal” value (human Sdc2 [8]) was 0.337, the “raw competing-Ab binding signal” value (human Sdc2 [9]) was -0.138 and the “raw competing-Ab binding signal” value (human Sdc2 [11]) was -0.135. The “raw competing-Ab binding signal” value (human Sdc2 [12]) was 0.348, the “raw competing-Ab binding signal” value (human Sdc2 [13]) was 0.338 and the “raw competing-Ab binding signal” value (human Sdc2 [14]) was 0.209. The “raw competing-Ab binding signal” value (human Sdc2 [15]) was 0.241, the “raw competing-Ab binding signal” value (human Sdc2 [16]) was 0.285 and the Kd (human Sdc2 [23]) was 17.7 nM. For the same binder, the koff (human Sdc2 [23]) was 0.00908 s⁻¹, the kon (human Sdc2 [23]) was 513000 M⁻¹ s⁻¹ and the “raw competing-Ab binding signal” value (human Sdc2 [17]) was 0.293. The “raw competing-Ab binding signal” value (human Sdc2 [18]) was 0.246, the “raw competing-Ab binding signal” value (human Sdc2 [19]) was 0.307 and the “raw competing-Ab binding signal” value (human Sdc2 [20]) was 0.304.
